For two molecules, interaction score results are on record in PMC10397247.

For one assay, the target named is T1, 4H1877-AA.
T1 chain: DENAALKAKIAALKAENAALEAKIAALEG
Kind of assay: two-hybrid library CCmax.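 Also: natural log of median RNA to DNA barcode read ratio; higher means stronger binding.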 The conditions noted are these: mean of both orientations.

The next assay deals with T2, 4H891-AA.
T2 chain: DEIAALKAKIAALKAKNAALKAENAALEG
Kind of assay: two-hybrid library CCmax.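 Also: natural log of median RNA to DNA barcode read ratio; higher means stronger binding.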 The conditions noted are these: mean of both orientations.

The next assay has as its target T3, 4H850-AA.
T3 chain: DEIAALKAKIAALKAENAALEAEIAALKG
The experiment in a line: two-hybrid library CCmax.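 Also: natural log of median RNA to DNA barcode read ratio; higher means stronger binding.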 The conditions noted are these: mean of both orientations.

The target of a further assay is T4, 4H745-AA.
T4 chain: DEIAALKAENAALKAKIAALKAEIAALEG
Kind of assay: two-hybrid library CCmax.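 Also: natural log of median RNA to DNA barcode read ratio; higher means stronger binding.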 The conditions noted are these: mean of both orientations.

A further assay addresses T5, 4H2330-AA.
T5 chain: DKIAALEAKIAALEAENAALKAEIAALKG
The experiment in a line: two-hybrid library CCmax.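 Also: natural log of median RNA to DNA barcode read ratio; higher means stronger binding.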 The conditions noted are these: mean of both orientations.

The target of the next assay is T6, 4H3753-AA.
T6 chain: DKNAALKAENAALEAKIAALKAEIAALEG
Kind of assay: two-hybrid library CCmax.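 Also: natural log of median RNA to DNA barcode read ratio; higher means stronger binding.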 The conditions noted are these: mean of both orientations.

In another assay the target is T7, 4H3009-AA.
T7 chain: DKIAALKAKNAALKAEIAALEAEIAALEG
The experiment in a line: two-hybrid library CCmax. The conditions noted are these: mean of both orientations.

The target in another assay is T8, 4H2473-AA.
T8 chain: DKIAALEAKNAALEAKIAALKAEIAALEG
Kind of assay: two-hybrid library CCmax. The conditions noted are these: mean of both orientations.

The next assay addresses T9, 4H310-AA.
T9 chain: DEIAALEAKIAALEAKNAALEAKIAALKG
The experiment in a line: two-hybrid library CCmax. The note with it: mean of both orientations.

The next assay addresses T10, 4H2438-AA.
T10 chain: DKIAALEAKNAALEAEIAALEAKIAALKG
The experiment in a line: two-hybrid library CCmax. The note with it: mean of both orientations.

The target in the next assay is T11, 4H629-AA.
T11 chain: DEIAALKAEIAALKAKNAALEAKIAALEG
The experiment in a line: two-hybrid library CCmax. The conditions noted are these: mean of both orientations.

The target of the next assay is T12, 4H1864-AA.
T12 chain: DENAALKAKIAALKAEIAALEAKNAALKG
Kind of assay: two-hybrid library CCmax.

A further assay deals with T13, 4H3130-AA.
T13 chain: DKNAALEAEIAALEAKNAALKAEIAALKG
Kind of assay: two-hybrid library CCmax. The conditions noted are these: mean of both orientations.

Another assay concerns the target T14, 4H2698-AA.
T14 chain: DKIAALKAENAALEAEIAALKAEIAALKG
The experiment in a line: two-hybrid library CCmax. The conditions noted are these: mean of both orientations.

A further assay has as its target T15, 4H3590-AA.
T15 chain: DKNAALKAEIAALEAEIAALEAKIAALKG
The experiment in a line: two-hybrid library CCmax. The conditions noted are these: mean of both orientations.

Another assay concerns the target T16, 4H2253-AA.
T16 chain: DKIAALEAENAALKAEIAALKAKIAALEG
Kind of assay: two-hybrid library CCmax. The conditions noted are these: mean of both orientations.

For another assay, the target named is T17, 4H3410-AA.
T17 chain: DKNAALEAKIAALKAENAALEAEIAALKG
Kind of assay: two-hybrid library CCmax. The note with it: mean of both orientations.

A further assay concerns the target T18, 4H3016-AA.
T18 chain: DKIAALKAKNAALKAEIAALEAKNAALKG
The experiment in a line: two-hybrid library CCmax. The note with it: mean of both orientations.

Another assay deals with T19, 4H485-AA.
T19 chain: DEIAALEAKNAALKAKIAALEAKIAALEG
Kind of assay: two-hybrid library CCmax. The note with it: mean of both orientations.

Another assay addresses T20, 4H570-AA.
T20 chain: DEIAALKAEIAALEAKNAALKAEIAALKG
The experiment in a line: two-hybrid library CCmax. The conditions noted are these: mean of both orientations.

For another assay, the target named is T21, 4H930-AA.
T21 chain: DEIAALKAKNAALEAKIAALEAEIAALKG
The experiment in a line: two-hybrid library CCmax. The conditions noted are these: mean of both orientations.

In another assay the target is T22, 4H94-AA.
T22 chain: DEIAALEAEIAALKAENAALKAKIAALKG
Kind of assay: two-hybrid library CCmax. The note with it: mean of both orientations.

The next assay addresses T23, 4H2649-AA.
T23 chain: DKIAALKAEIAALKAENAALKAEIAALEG
The experiment in a line: two-hybrid library CCmax. The conditions noted are these: mean of both orientations.

In a further assay the target is T24, 4H3381-AA.
T24 chain: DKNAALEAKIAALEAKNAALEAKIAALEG
Kind of assay: two-hybrid library CCmax. The note with it: mean of both orientations.

The next assay addresses T25, 4H909-AA.
T25 chain: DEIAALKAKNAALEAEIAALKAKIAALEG
The experiment in a line: two-hybrid library CCmax. The note with it: mean of both orientations.

The next assay has as its target T26, 4H2725-AA.
T26 chain: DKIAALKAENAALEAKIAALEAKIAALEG
Kind of assay: two-hybrid library CCmax. The note with it: mean of both orientations.

Another assay has as its target T27, 4H2109-AA.
T27 chain: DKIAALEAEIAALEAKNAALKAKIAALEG
The experiment in a line: two-hybrid library CCmax. The note with it: mean of both orientations.

The target in the next assay is T28, 4H458-AA.
T28 chain: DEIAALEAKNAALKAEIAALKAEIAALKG
The experiment in a line: two-hybrid library CCmax. The conditions noted are these: mean of both orientations.

The next assay has as its target T29, 4H3120-AA.
T29 chain: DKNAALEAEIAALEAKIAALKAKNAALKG
Kind of assay: two-hybrid library CCmax. The conditions noted are these: mean of both orientations.

The next assay concerns the target T30, 4H2389-AA.
T30 chain: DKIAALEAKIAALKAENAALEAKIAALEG
Kind of assay: two-hybrid library CCmax. The conditions noted are these: mean of both orientations.

For the next assay, the target named is T31, 4H3395-AA.
T31 chain: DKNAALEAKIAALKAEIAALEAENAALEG
Kind of assay: two-hybrid library CCmax. The note with it: mean of both orientations.

Another assay concerns the target T32, 4H2865-AA.
T32 chain: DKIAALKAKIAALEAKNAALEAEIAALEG
The experiment in a line: two-hybrid library CCmax. The conditions noted are these: mean of both orientations.

In the next assay the target is T33, 4H536-AA.
T33 chain: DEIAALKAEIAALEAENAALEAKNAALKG
Kind of assay: two-hybrid library CCmax. The note with it: mean of both orientations.

For a further assay, the target named is T34, 4H2274-AA.
T34 chain: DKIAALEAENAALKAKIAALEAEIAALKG
The experiment in a line: two-hybrid library CCmax. The note with it: mean of both orientations.

The target in the next assay is T35, 4H2162-AA.
T35 chain: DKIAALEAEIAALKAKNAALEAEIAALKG
The experiment in a line: two-hybrid library CCmax. The note with it: mean of both orientations.

Another assay concerns the target T36, 4H3165-AA.
T36 chain: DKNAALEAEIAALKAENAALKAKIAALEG
The experiment in a line: two-hybrid library CCmax. The note with it: mean of both orientations.

The target of the next assay is T37, 4H710-AA.
T37 chain: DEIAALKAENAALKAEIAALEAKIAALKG
Kind of assay: two-hybrid library CCmax. The note with it: mean of both orientations.

For a further assay, the target named is T38, 4H3865-AA.
T38 chain: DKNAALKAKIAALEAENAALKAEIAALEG
The experiment in a line: two-hybrid library CCmax. The conditions noted are these: mean of both orientations.

The target in the next assay is T39, 4H797-AA.
T39 chain: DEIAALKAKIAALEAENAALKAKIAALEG
The experiment in a line: two-hybrid library CCmax. The note with it: mean of both orientations.

The next assay deals with T40, 4H3697-AA.
T40 chain: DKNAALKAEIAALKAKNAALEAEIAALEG
The experiment in a line: two-hybrid library CCmax. The note with it: mean of both orientations.

A further assay has as its target T41, P8mSN.
T41 chain: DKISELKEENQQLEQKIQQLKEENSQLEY
The experiment in a line: two-hybrid library CCNG1.

The target in a further assay is T42, P9mSN.
T42 chain: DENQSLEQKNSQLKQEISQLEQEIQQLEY
Kind of assay: two-hybrid library CCNG1.

As for DENAALKAKIAALKAEIAALEAKNAALKG [4H1864-AA], the interaction score is -1.45 with 4H1877-AA; -0.897 with 4H891-AA; 0.223 with 4H850-AA; -1.35 in the assay with 4H745-AA; -1.49 with 4H2330-AA; 0.231 with 4H3753-AA. Further, the interaction score was -0.905 with 4H3009-AA; -1.22 in the assay with 4H2473-AA; -1.48 with 4H310-AA; 0.434 with 4H2438-AA; -1.52 with 4H629-AA; 0.981 in the assay with 4H1864-AA. The interaction score in the assay with 4H3130-AA was -0.716; with 4H2698-AA, -0.664; with 4H3590-AA, 1.23; in the assay with 4H2253-AA it was -1.42; in the assay with 4H3410-AA it was -1.5; in the assay with 4H3016-AA, -1.47. The interaction score in the assay with 4H485-AA is -0.878; with 4H570-AA, -0.57; in the assay with 4H930-AA it was -1.41; with 4H94-AA it was -0.986; in the assay with 4H2649-AA, -1.17; with 4H3381-AA it was -1.63. Besides, the interaction score with 4H909-AA was -1.38; in the assay with 4H2725-AA it was -0.938; in the assay with 4H2109-AA it was -0.599; in the assay with 4H458-AA, -1.21; in the assay with 4H3120-AA it was 0.774; with 4H2389-AA, 0.806. Besides, the interaction score in the assay with 4H3395-AA is 0.321; with 4H2865-AA, -1.19; in the assay with 4H536-AA, 0.437; in the assay with 4H2274-AA, -1.75; in the assay with 4H2162-AA it was -1.67; with 4H3165-AA, -1.47. The interaction score in the assay with 4H710-AA was 1.32; with 4H3865-AA, -1.65; in the assay with 4H797-AA, -2.09; in the assay with 4H3697-AA, -1.57.
As for DKISELKEENQQLEQKIQQLKEENSQLEY [P8mSN], the interaction score with P8mSN is -0.489; with P9mSN it was -1.04.
